In the supplement of paper PMC9170038:

Test system: MS2 coat protein
Test: apparent KD of MS2 coat protein; designed switch direction (-1 OFF switch, 1 ON switch): -1; higher = weaker reporter binding
How it was run: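 The reported apparent KD is a per-design median over clusters, from curve fits of normalised cluster fluorescence. Protein titrations used SNAP-549-labelled MS2 coat protein, doubled from 0.7 or 1.5 nM to 3 µM, in Tris-HCl pH 7.5 buffer with KCl, MgCl2, BSA, DTT, tRNA and Tween-20, with no input, 200 uM small-molecule ligand, or an oligonucleotide input. The RNA switches were transcribed on Illumina chips by stalled E. coli RNA polymerase.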

[1] = Eterna round: R95, input ligand: FMN 200 uM
[2] = Eterna round: R95, input ligand: microRNA oligo, concentration not stated
[3] = Eterna round: R95, input ligand: none
[4] = input ligand: microRNA oligo, concentration not stated

Sequence	apparent KD of MS2 coat protein [1]	apparent KD of MS2 coat protein [2]	apparent KD of MS2 coat protein [3]	apparent KD of MS2 coat protein [4]	apparent KD of MS2 coat protein (input ligand: FMN 200 uM)	apparent KD of MS2 coat protein (input ligand: none)
CCGAAUAUGUAGGAUAUCGUAUCGGAAACGAUACGAGAAGGACAAACAUGAGGAUCACCCAUGUUCCUUAACGG [Fiskers Ex 6 - 12] (puzzle: Exclusion 6)	18.5 nM	15.6 nM	15 nM			
UCGGCGCGAGGAUAUACGUUUGCUUUUUUUUGUCGUUGCGUACAUGAGGAUCACCCAUGUAGAAGGCGCGCCGC [Apr-15 SS2-23] (puzzle: Exclusion 2)		16.8 nM				
UUUAUUUUGCAAGGAUAUGUUUAAUUUUAGUUUCCUUAUACAUGAGGAUCACCCAUGUUAUACUUACAGAAGGUGCAUAAUUUU [JR_ExcNG2_Sub037] (Eterna round: R96, puzzle: Exclusion NG 2)				68.7 nM		
CUUAAACAUGAGGAUCACCCAUGUCAGGAUAUGAUACUAUGUACUUCGGUACAUAGUAUCAGAAGGGAUAUAAA [Ex1-3: 65] (puzzle: Exclusion 1)		39.3 nM				
AGCAAGCUUUUAAGAUCCUACAUGAGGAUCACCCAUGUGCUCGUCUUAUAACGUACUGUGACGAAAGUCACGGUACG [JL TOV1 3.32] (Eterna round: R97, puzzle: Sensor, turn-off variant 1)					253 nM	217 nM
AGUACUAUCACGAAAGUGAUAGUACAAUGAGCUUUUGAAACAUGAGGAUCACCCAUGUCCUCGUAAGCUCGUCUUAA [Mat - Sensor v2 - var 2 - Mod - D179] (Eterna round: R96, puzzle: Sensor v2, turn-off variant 2)				438 nM	25.7 nM	28.6 nM
ACCCAACAUGAGGAUCACCCAUGUCAGGAUAUCCAUCAAAAGCACGAAAGGCGAGGAUGGAGAAGGGACAGAGG [ChP 04-04-2015 #2] (puzzle: Exclusion 1)	335 nM	178 nM	128 nM			
UGCACCUCAGGAUAUACUAGGUCCAGUAUGGCGAAAGCCGCACAUGAGGAUCACCCAUGUAGAAGGGAGGUGCA [Eternabot (L1) Solution 61] (Eterna round: R97, puzzle: Exclusion 2)					34.1 nM	257 nM
GCUUGUGGGCAAGGAUAUCCUACGCUGUUCUGGUUCGUGUCUGUCACAUGAGGAUCACCCAUGUGGGAGAAGGUGCAUUUGGGU [Design 58] (Eterna round: R96, puzzle: Exclusion NG 2)				21.2 nM	17.7 nM	20.9 nM
UUUAAUUUUUUUUUUUUACAAGCUUUUUGCUCGUCUUAUACAUGAGGAUCACCCAUGUGGGUGGAGAGUAAAUUAUC [JMF 60] (puzzle: Sensor v3, turn-off variant 2)	45.4 nM	47.1 nM	56 nM			
ACCAGACAUGAGGAUCACCCAUGUCAGGAUAUUAUUCUACCUGAAGUUCGGGAUUGUGUGAGAAGGGACUGGGA [Eternabot (L2) Solution 86] (Eterna round: R97, puzzle: Exclusion 1)					17.4 nM	16.1 nM
ACCCAGUCAGGAUAUCCGGAGUUCCGCGAUGGCGGACGGUAGGAGAAGGGACAUGAGGAUCACCCAUGUAGAAA [EX4 B.17] (Eterna round: R97, puzzle: Exclusion 4)					179 nM	34.7 nM
GUGGUCUAUGUAGGAUAUACGUUUGUGCGAUGCGUAGAAGGACAUGAGGAUCACCCAUGUGUGCGAGGAUCACCCGUGUGUUGU [double] (Eterna round: R96, puzzle: Exclusion NG 1)				83.9 nM	158 nM	100 nM
GACCCGUCAGGAUAUACAUGAGGAUCACCCAUGUAAUCAGCGAUAGGACAAGGCUCACGUAGAAGGGACAGGGU [Eternabot (L1) Solution 33] (Eterna round: R97, puzzle: Exclusion 3)					44.6 nM	22.8 nM
GGCUAGUCAGGAUAUACGAACAUGUCAAAAGACGUGAAGGGACAUGAGGAUCACCCAUGUAGAAGGGACUAGCU [salish99_ex2_r3_003] (puzzle: Exclusion 2)		27.9 nM				
CCUAUGUGAGGAUAUCACUGGUCUUUUCAUUGGAUGAUUAGUGAGAAGGCACAUGAGGAUCACCCAUGUCGGUG [Ex4 - 3 - 52] (puzzle: Exclusion 4)		34.6 nM				
AUUGUAUGGGAAGGAUAUAGAAUAUUAUUUUAACAUGAGGAUCACCCAUGUAACCUUAUGUGUAGCUAGAAGGUCCGUUUAUUA [Title] (Eterna round: R96, puzzle: Exclusion NG 2)				112 nM		

Sequence	apparent KD of MS2 coat protein [1]	apparent KD of MS2 coat protein [2]	apparent KD of MS2 coat protein [3]	apparent KD of MS2 coat protein [4]	apparent KD of MS2 coat protein (input ligand: FMN 200 uM)	apparent KD of MS2 coat protein (input ligand: none)
UGAUCUAGCGGAGGAUAUACAUGAGGAUCACCCAUGUAGAUAACAUGACCGUAGUCGUGUAUCGUGUAGAAGGCCGCUAGAUCU [JL ENG2 3.67] (Eterna round: R96, puzzle: Exclusion NG 2)				9.25 nM	35 nM	12.6 nM
UAUUAGCAAGCAAAUGGGUACAUGAGGAUCACCCAUGUGCUCGUCUUAUAAGGUACUGUGACGAAAGUCACGGUCCC [mod--Eli7] (Eterna round: R97, puzzle: Sensor, turn-off variant 1)					23 nM	24 nM
CAUACAGUAGUCAGGAUAUUGGAAGAGACACGGAACGAGAAGGGACAUGAGGAUCACCCAUGUAUACUGUAAAG [EX-4 Malc #4] (Eterna round: R96, puzzle: Brourd's mod of Exclusion 4)				25.5 nM	22.3 nM	29.9 nM
UUUACCAGAGGAUAUGCGAAUAAAUAAAACUUUUUUUUUUAACAUGAGGAUCACCCAUGUAGAAGGCUGCAUUU [Ex2 #29] (Eterna round: R97, puzzle: Exclusion 2)					25.5 nM	28.2 nM
GCAGAAUGAGUUAGGAUAUGAUGAUUAUUCGGAAAUCAGAAGGAACUUGAGGAUCACCCAAGUAAAGAUAGGGU [JR_BMEx4_Sub063] (Eterna round: R97, puzzle: Brourd's mod of Exclusion 4)					361 nM	221 nM
UUUAAUUUUUUUUUUUUACAAGCUUUUUGCUCGUCUUAUACAUGAGGAUCACCCAUGUAGGUGAGGAGUAAAUUAUC [JMF 62] (puzzle: Sensor v3, turn-off variant 2)	15.5 nM	111 nM	14.8 nM			
AGAAUGGUACAGGAUAUAGCAUCUAACUGCAUGCUAGAAGGGUAUACAUGAGGAUCACCCAUGUAGUCGUGGAU [Eternabot (L1) Solution 13] (Eterna round: R97, puzzle: Exclusion 6)					55.2 nM	37.4 nM
CUGGUCCGAGGAUAUAUUAAGUGAUACAUGAGGAUCACCCAUGUAAUUUGAUGGAAGUAAAUAGAAGGCGGACUAG [Mat - Exclusion 5 - JL mod - D45] (puzzle: Exclusion 5)	34.2 nM	43 nM	74 nM			
GAGAUGUGAGGAUAUCUAGACCGCGAAAGAGCCGCGGUCCGAGAGAAGGCACAUGAGGAUCACCCAUGUGAUGA [Tiesri] (puzzle: Exclusion 4)		39.4 nM				
GGUUAUUGCAAGGAUAUGCUUUUUUUUGAAAUUGCAGAAGGUGCAACAUGAGGAUCACCCAUGUUGGAUGGGUU [JR_E6_Sub018] (Eterna round: R96, puzzle: Exclusion 6)				161 nM	252 nM	194 nM
GGCAUGCAAGGAUAUACUUACGGUGGUGUUCGAAGCUUUCUACUUGAGGAUCACCCAAGUAGAAGGUGCAUGCC [jl-ex2.4.74 ViennaUCT mod] (Eterna round: R97, puzzle: Exclusion 2)					18.7 nM	23.7 nM
UUCCUCACUUCUUUGUCUCACAUGAGGAUCACCCAUGUAAUAUAGGAUAUGCUUAGUAUUUAUAUGCAGAAGGAUAUUAGUAUU [JR_ExcNG3_Sub084] (Eterna round: R96, puzzle: Exclusion NG 3)				39.8 nM	157 nM	55.5 nM
AAUUAUUUAUGAGGAUAUUGUGGUGAAACACCACAAGAAGGCAUGAUACACAUGAGGAUCACCCAUGUGAGCCUGAUGCAUAUA [Ex NG1 #58] (Eterna round: R96, puzzle: Exclusion NG 1)				13.5 nM		
UGAUCAGACCGAGGAUAUACAGGGAGCACGCACGUGAGUGCGUGCACUACAUGAGGAUCACCCAUGUAGAAGGCGGUCUGAUCU [JL ENG2 1.00] (Eterna round: R96, puzzle: Exclusion NG 2)				16.1 nM	268 nM	19.3 nM
AAUAAACAUGAGGAUCACCCAUGUGAGGAUAUCCAAAUAAAUAAUAAAAUAAAUAAAAGGAGAAGGCACAAUAA [JMF most obvious solution 2] (puzzle: Exclusion 1)	71.7 nM	198 nM	190 nM			
UACAUGAGGAUCACCCAUGUUUUGUCGUGUAUGGUAUUUAUCUAGGAUAUCAAUAUAUUUAUUUAUGAGAAGGAGAAUAUUAAU [JMF's solution 11] (Eterna round: R96, puzzle: Exclusion NG 3)				28.5 nM		
UGUUGUUACGUAGGAUAUCCACCAACAGGUGGAAGGAUAUGGAAACAGAAGGUUCGCCAACAGGCGGAGAAGGACGUGUUAACU [pwkr exNG2 2xF7 2xFMN.23] (Eterna round: R96, puzzle: Exclusion NG 2)				3780 nM	2.79 nM	288 nM
